Legend:
HLA-A*0201 (human) [1] = assay: iTopia affinity
HLA-A*0201 (human) [2] = assay: iTopia binding
HLA-A*0201 (human) [3] = assay: iTopia net score
HLA-A*1501 (human) [4] = assay: iTopia affinity
HLA-A*1501 (human) [5] = assay: iTopia net score

Binder | ED50 (HLA-A*0201 (human) [1]) [µM] | binding vs positive control (HLA-A*0201 (human) [2]) [%] | iScore (HLA-A*0201 (human) [3]) | ED50 (HLA-A*1501 (human) [4]) [µM] | iScore (HLA-A*1501 (human) [5])
MLQSEHPFV (modifications not checked) [cdr2 260-268 …] | 2 | > 30 | 0.584 |  | 
QQLGATGAY [cdr2 235-243 …] |  |  |  | 8.6 | 0.255
LLRQMNEQH [cdr2 72-80 …] |  |  |  | 68 | 0.106
YDLRQHFVY [cdr2 165-173 …] |  |  |  | 45 | 0.098
LQQDLQLAA [cdr2 24-32 …] |  |  |  | 42 | 0.09
MRQMLQSEH [cdr2 257-265 …] |  |  |  | 170 | 0.075
PSFACLKEL [cdr2 156-164 …] |  |  |  | 45 | 0.072
RQKRVTMEE [cdr2 213-221 …] |  |  |  | 110 | 0.065

Reference: patent publication US20090208538A1
